Measurements: PMC4876856

Molecular target: truncated rabbit TRPV2 (residues 56-560 and 581-721) (rabbit) (UniProt G1SNM3)
Assay: cryo-EM structure

stoichiometry N: 4
Substance: truncated rabbit TRPV2 (residues 56-560 and 581-721) (from UniProt G1SNM3 56-560; G1SNM3 581-721) (domain or fragment)
